{"source": "patent US20250064852A1", "about": "(University of Pennsylvania, published 2025)", "binders": {"B1": {"name": "CD5-17H2L-3054 CAR (anti-CD5 chimeric antigen receptor, clone #17, heavy-to-light chain orientation) (other)", "chain": "GSEVQLVESGPGLVQPSQSLSITCTVSGFSLTNYDVHWVRQSPGKGLEWLGVIWNYGNTDYNAAFISRLSIRKDSSKSQVFFTMSSLQTPDTAIYYCARNHGDGYYNWYFDVWGTGTTVTVSSGGGGSGGGGSGGGGSNIVLTQSPSSLSESLGGKVTITCKASQDINKYIAWYQYKPGKGPRLLIHYTSTLQPGIPSRFSGSGSGRDYSFSISNLEPEDIATYYCLQYDNLWTFGGGTKLEIKSRTTTPAPRPPTPAPTIASQPLSLRPEACRPAAGGAVHTRGLDFACDIYIWAPLAGTCGVLLLSLVITLYCHMKRGRKKLLYIFKQPFMRPVQTTQEEDGCSCRFPEEEEGGCELTSRVKFSRSADAPAYQQGQNQLYNELNLGRREEYDVLDKRRGRDPEMGGKPRRKNPQEGLYNELQKDKMAEAYSEIGMKGERRRGKGHDGLYQGLSTATKDTYDALHMQALPPR", "notes": "also called CAR5; anti-CD5 CAR"}}, "key": {"[1]": {"biological_target": "T1, recombinant human CD5 protein conjugated to a polyhistidine (His) tag at the C-terminus (Sino Biologicals); … (human, UniProt P06127 25-372)", "T1 construct": "Bought reagent; also called recombinant CD5 protein; not shown: C-terminal polyhistidine tag", "T1 sequence (looked up)": "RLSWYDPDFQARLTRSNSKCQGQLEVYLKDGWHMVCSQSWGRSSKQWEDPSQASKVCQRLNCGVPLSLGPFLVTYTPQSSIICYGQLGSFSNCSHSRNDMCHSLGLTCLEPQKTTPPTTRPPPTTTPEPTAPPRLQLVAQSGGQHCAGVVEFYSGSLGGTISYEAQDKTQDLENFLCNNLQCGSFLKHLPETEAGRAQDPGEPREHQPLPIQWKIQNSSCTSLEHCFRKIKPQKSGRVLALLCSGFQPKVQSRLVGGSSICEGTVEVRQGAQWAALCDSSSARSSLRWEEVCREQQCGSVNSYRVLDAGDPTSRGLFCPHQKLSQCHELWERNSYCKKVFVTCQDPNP", "experiment": "flow cytometry on CAR T cells, APC anti-6x His-tag secondary antibody", "source_text": "General flow cytometry: Cells were resuspended in FACS staining buffer (phosphate buffered saline (PBS)+2% FBS) using one or more of the following antibodies: CD5 (UCHT2; BioLegend; Cat #300612), CD4, CD8 (RPA-T8; BD Biosciences; Cat #563795), CD45RA (L48; BD Biosciences; Cat #347723), CCR7 (G043H7; BioLegend; Cat #353214), PD1 (EH12.1; BD Biosciences; Cat #562516), LAG3 (3DS223H; Invitrogen; Cat #11-2239-42), CD3 (UCHT1; BD Biosciences; Cat #565119 or OKT3; BioLegend; Cat #317334), hCD45 (2D1; BioLegend; Cat #368522), or mCD45. CAR5 was detected by incubating cells with recombinant human CD5 protein conjugated to a polyhistidine (His) tag at the C-terminus (Sino Biologicals; Cat #11027-H08H) followed by an Allophycocyanin (APC) anti-6× His-tag secondary antibody (Abcam; Cat #ab72579). CARmeso was detected using a Biotin-SP goat anti-human F(ab′)₂ antibody (Jackson ImmunoResearch; Cat #109-066-097) followed by an R-Phycoerythrin (PE) streptavidin secondary antibody (Jackson ImmunoResearch; Cat #016-110-084). All changes in overall tumor or T cell counts reflected by absolute cell counts were determined using Flow-Count Fluorospheres (Beckman; Cat #754053). Cell viability was established using ViaKrome 808 Fixable Viability Dye (Beckman; Cat #C36628) and data were acquired on an LSRII Fortessa Cytometer (BD) or CytoFlex LX Flow Cytometer (Beckman). […]"}, "human CD5": {"biological_target": "T2, human CD5 (human, UniProt P06127 25-495)", "T2 construct": "whole, on cells; also called primary target CD5", "T2 sequence (looked up)": "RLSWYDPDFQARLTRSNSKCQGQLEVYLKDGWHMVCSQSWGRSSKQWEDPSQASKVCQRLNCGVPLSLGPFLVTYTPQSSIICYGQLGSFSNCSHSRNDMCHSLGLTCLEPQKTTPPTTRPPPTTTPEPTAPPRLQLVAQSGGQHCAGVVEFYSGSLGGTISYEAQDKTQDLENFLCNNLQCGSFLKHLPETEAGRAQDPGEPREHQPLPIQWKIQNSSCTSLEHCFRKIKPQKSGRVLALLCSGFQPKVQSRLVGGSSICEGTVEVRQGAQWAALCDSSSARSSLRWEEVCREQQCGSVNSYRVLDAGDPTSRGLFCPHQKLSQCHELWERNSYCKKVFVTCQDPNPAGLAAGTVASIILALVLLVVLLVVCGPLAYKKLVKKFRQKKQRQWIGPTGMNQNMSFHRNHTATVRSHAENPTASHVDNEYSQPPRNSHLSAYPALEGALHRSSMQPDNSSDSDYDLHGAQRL", "experiment": "cell microarray (Retrogenix): labelled CAR T cells on fixed HEK293 cells expressing human membrane proteins; library and confirmation screen", "source_text": "CART5 on- and off-targeting specificity analysis: For a library screen, CD5 KO CART5 cells were fluorescently labelled and screened for binding against fixed HEK293 cells/slides expressing 5828 human plasma membrane proteins and cell surface tethered human secreted proteins+398 human heterodimers in duplicates (18 slide sets, n=2 slides per slide set, 3.2×10⁷ cells/slide). In total, 22 primary hits (duplicate spots) were identified by analyzing fluorescence (Alexa Fluor 647 and ZsGreen1) on ImageQuant. There were a range of intensities (signal to background) from very weak to strong. A confirmation screen was performed by testing Mock KO UTD and CD5 KO CART5 cell binding against all 22 hits in duplicate on new slides. Library and confirmation screens as well as analyses were performed at Retrogenix, Charles River Laboratories."}}, "data": [{"binder": "B1", "values": [{"measurement": "binding result", "setting": "[1]", "value": "binds"}, {"measurement": "binding result", "setting": "human CD5", "value": "binds"}]}]}
